Laboratory results published in paper PMC9449670 (2022).
Where no end group is shown, it is not given here.

Key:
[1] = molecular target: T1, Pept 02 (GsMTx4 loop2-derived peptide) (Grammostola spatulata, not fully specified (bridges); printed as Trp-Lys-Cys-Asn-Pro-Asn-Asp-Asp-Lys-Cys; cysteine pairing not given here); test: inside-out patch clamp dose-response (Hill fit, -50 mV)
T1 chain: WKCNPNDDKC

GsMTx4 = molecular target: T2, GsMTx4 (Grammostola spatulata, UniProt Q7YT39, not fully specified); test: as above
T2 chain: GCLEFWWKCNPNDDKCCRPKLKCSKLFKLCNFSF

B1: SAKcaC (stretch-activated BK channel) (protein)
chain: not shown
Kd [1]: 23.8 nM | Kd (GsMTx4): 47.2 nM
